B1: CHIera Mut1: Chalcone isomerase variant 1 from Eubacterium ramulus, genetically engineered (protein, listed as Eubacterium ramulus)
chain: MADFKFEPMRSLIYVDCVSEDYRPKLQRWIYKVHIPDSISKFEPYVTKYAFYPSFPIPPQGDRFGYARMQLTEHHWLVSELDPRLEINAIAETFPMDVLVWQGQIPAAAHTDAQIDSDGDAGRAAGKSNNAEGNPFIFAFLPMWWEKDLKGKGRTIEDGANYRFNMTIGFPEGVDKAEGEKWLFEKVVPILQAAPECTRVLASAVKKDINGCVMDWVLEIWFENQSGWYKVMVDDMKALEKPSWAQQDAFPFLKPYHNVCSAAVADYTPSNNLANYRGYITMR
B2: CHIera Mut8: Chalcone isomerase variant 8 from Eubacterium ramulus, genetically engineered (protein, listed as Eubacterium ramulus)
chain: MADFKFEPMRSLIYVDCVSEDYRPKLQRWIYKVHIPDSISKFEPYVTKYAFYPSFPIPPQGDRFGYARMQLTEHHWLVSPLDPRLEINAIAETFPMDVLVWQGQIPAAAHTDAQIDSDGDAGEAARKSNNAEGNPFIFAFLPMWWEKDLKGKGRTIEDGANYRFNMTIGFPEGVDKAEGEKWLFEKVVPILQAAPECTRVLASAVKKDINGCVMDWVLEIWFENQSGWYKVMVDDMKALEKPSWAQQDAFPFLKPYHNVCSAAVADYTPSNNLANYRGYITMR
B3: CHIera Mut13: Chalcone isomerase variant 13 from Eubacterium ramulus, genetically engineered (protein, listed as Eubacterium ramulus)
chain: MADFKFEPMRSLIYVDCVSEDYRPKLQRWIYKVHIPDSISKFEPYVTKYAFYPSFPIPPQGDRFGYARMQLTEHHWLVSPLDPRLEINAIAETFPMDVLVWQGQIPAAAHTDAQIDSDGDADDAARKSNNAEGNPFIFAFLPMWWEKDLKGKGRTIEDGANYRFNMTIGFPEGVDKAEGEKWLFEKVVPILQAAPECTRVLASAVKKDINGCVMDWVLEIWFENQSGWYKVMVDDMKALEKPSWAQQDAFPFLKPYHNVCSAAVADYTPSNNLANYRGYITMR
B4: CHIera Mut6: Chalcone isomerase variant 6 from Eubacterium ramulus, genetically engineered (protein, listed as Eubacterium ramulus)
chain: MADFKFEPMRSLIYVDCVSEDYRPKLQRWIYKVHIPDSISNFEPYVTKYAFYPSFPIPPQGDRFGYARMQLTEHHWLVSELDPRLEIRAIAETFPMDVLVWQGQIPAAAHTDAQIDSDGDAGDAARKSNNAEGNPFIFAFLPMWWEKDLKGKGRTIEDGANYRFNMTIGFPEGVDKAEGEKWLFEKVVPILQAAPECTRVLASAVKKDINGCVMDWVLEIWFENQSGWYKVMVDDMKALEKPSWAQQDAFPFLKPYHNVCSAAVADYTPSNNLANYRGYITMR
B5: CHIera Mut3: Chalcone isomerase variant 3 from Eubacterium ramulus, genetically engineered (protein, listed as Eubacterium ramulus)
chain: MADFKFEPMRSLIYVDCVSEDYRPKLQRWIYKVHIPDSISNFEPYVTKYAFYPSFPIPPQGDRFGYARMQLTEHHWLVSELDPRLEIKAIAETFPMDVLVWQGQIPAAAHTDAQIDSDGDAGRAAGKSNNAEGNPFIFAFLPMWWEKDLKGKGRTIEDGANYRFNMTIGFPEGVDKAEGEKWLFEKVVPILQAAPECTRVLASAVKKDINGCVMDWVLEIWFENQSGWYKVMVDDMKALEKPSWAQQDAFPFLKPYHNVCSAAVADYTPSNNLANYRGYITMR
B6: CHIera Mut5: Chalcone isomerase variant 5 from Eubacterium ramulus, genetically engineered (protein, listed as Eubacterium ramulus)
chain: MADFKFEPMRSLIYVDCVSEDYRPKLQRWIYKVHIPDSISKFEPYVTKYAFYPSFPIPPQGDRFGYARMQLTEHHWLVSPLDPRLEINAIAETFPMDVLVWQGQIPAAAHTDAQIDSDGDAGRAAKKSNNAEGNPFIFAFLPMWWEKDLKGKGRTIEDGANYRFNMTIGFPEGVDKAEGEKWLFEKVVPILQAAPECTRVLASAVKKDINGCVMDWVLEIWFENQSGWYKVMVDDMKALEKPSWAQQDAFPFLKPYHNVCSAAVADYTPSNNLANYRGYITMR

Legend:
Format in all cases: biochemical
Settings in all cases: purified CHI in 50 mM PBS, 100 μM substrate, 25° C.
[1] = Specific activity of purified CHI, absorbance decrease at 384 nm, hesperetin chalcone
[2] = Specific activity of purified CHI, absorbance decrease at 384 nm, homoeriodictyol chalcone
[3] = Specific activity of purified CHI, absorbance decrease at 384 nm, 4-O-methyl butein
Procedure: E. coli BL21 (DE3) cells containing one of the pET28b plasmids from Table 2 or Table 3 were used to inoculate 1 L LB medium at OD of 0.1. Cells were incubated at 37° C., 250 rpm until the OD reached 0.4-0.6 and induced by supplementing with 0.1 mM IPTG. After protein expression at 28° C., 250 rpm for 16 h, the cells were harvested by centrifugation at 4,000×g for 15 min. The harvested cells were lysed with 0.5 mg/mL lysozyme (Sigma-Aldrich), 0.4 U/mL Benzonase (Sigma-Aldrich) and BugBuster (Merck) at room temperature for 0.5 h to obtain a crude cell extract. The crude extract was centrifuged at 10,000×g for 30 min to remove the pellet. Recombinant proteins were purified by Ni-affinity chromatography (GE Healthcare). The supernatant of the crude extract was loaded on the column with 20 mM imidazole. The column was washed by 5 column volumes of 30 mM imidazole with 20 mM PBS (pH 7.4) and 500 mM NaCl. The target proteins were eluted by 150 mM imidazole with 20 mM PBS (pH 7.4) and 500 mM NaCl. Buffer exchange with 50 mM PBS (pH 7.5) was achieved by ultrafiltration with Amicon Ultra-15 (Merck). The activity of the respective purified enzyme was determined by measuring the absorbance decrease at 384 nm in the reaction mix (CHI in 50 mM PBS with 100 μM of either naringenin chalcone, hesperetin chalcone, eriodictyol chalcone, homoeriodictyol chalcone or 4-O-methyl butein at 25° C.).

[4] = Specific activity of purified CHI, absorbance decrease at 384 nm, naringenin chalcone
[5] = Specific activity of purified CHI, absorbance decrease at 384 nm, eriodictyol chalcone

| Molecule | Specific activity, Hesperetin chalcone [1] | Specific activity, Homoeriodctiol chalcone [2] | Specific activity, 4-O-methyl butein [3] | Specific activity, Naringenin chalcone [4] | Specific activity, Eriodictyol chalcone [5] |
| --- | --- | --- | --- | --- | --- |
| B1 | 93.2 | 23.7 | 0.4 | 32.6 | 59.5 |
| B2 | 83.9 | 21.2 | 0.5 | 25.6 | 49.0 |
| B3 | 107.1 | 33.6 | 1.4 | 28.0 | 28.0 |
| B4 | 30.3 | 20.0 | 0.4 | 17.1 | 52.4 |
| B5 | 55.1 | 13.0 | 0.3 | 16.7 | 39.2 |
| B6 | 4.5 | 8.8 | 0.1 | 8.0 | 13.5 |

Source: patent US20240150797A1, “BIOCATALYTICAL PRODUCTION OF DIHYDROCHALCONES” (Symrise AG, priority 2021, published 2024)
